Results as given in patent US20170290876A1 (Novartis, published 2017).
Residue numbers refer to the chain shown, from its start. Numbers in names are those of the source.

Target: T1, human VEGF (human, UniProt P15692 207-395, biotinylated (site not stated))
T1 construct: Biotinylated human VEGF generated internally; also called hVEGF; hVEGF-biotin
T1 sequence: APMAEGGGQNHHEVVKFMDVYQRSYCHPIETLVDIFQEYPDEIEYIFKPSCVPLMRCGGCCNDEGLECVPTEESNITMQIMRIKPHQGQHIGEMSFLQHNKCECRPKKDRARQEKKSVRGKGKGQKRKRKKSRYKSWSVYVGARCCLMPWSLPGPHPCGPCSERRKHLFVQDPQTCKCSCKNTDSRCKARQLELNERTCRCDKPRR
Experiment: Biacore SPR, hVEGF

B1: NVS4 heavy chain variant D31N (Fab, V domains shown)
VH: EVQLVESGGGLVQPGGSLRLSCTASGFSLTNYYYMTWVRQAPGKGLEWVGFIDPDDDPYYATWAKGRFTISRDNSKNTLYLQMNSLRAEDTAVYYCAGGDHNSGWGLDIWGQGTLVTVSS
VL: EIVMTQSPSTLSASVGDRVIITCQASEIIHSWLAWYQQKPGKAPKLLIYLASTLASGVPSRFSGSGSGAEFTLTISSLQPDDFATYYCQNVYLASTNGANFGQGTKLTVLK
notes: CDR variant of NVS4
  Kd: 4.09 pM
  koff: 4.7e-05 s⁻¹
  kon: 1.15e+07 M⁻¹ s⁻¹

B2: NVS4 heavy chain variant D31S (Fab, V domains shown)
VH: B1 VH with N31S
VL: B1 VL
notes: CDR variant of NVS4
  Kd: 8.86 pM
  koff: 4.67e-05 s⁻¹
  kon: 5.27e+06 M⁻¹ s⁻¹

B3: NVS4 heavy chain variant D31S + Y32K (Fab, V domains shown)
VH: B1 VH with N31S, Y32K
VL: B1 VL
notes: CDR variant of NVS4
  Kd: 185 pM
  koff: 0.000958 s⁻¹
  kon: 5.18e+06 M⁻¹ s⁻¹

B4: NVS4 heavy chain variant D55N (Fab, V domains shown)
VH: B1 VH with N31D, D55N
VL: B1 VL
notes: CDR variant of NVS4
  Kd: 103 pM
  koff: 0.000654 s⁻¹
  kon: 6.35e+06 M⁻¹ s⁻¹

B5: NVS4 heavy chain variant D55N + D56N (Fab, V domains shown)
VH: B1 VH with N31D, D55N, D56N
VL: B1 VL
notes: CDR variant of NVS4
  Kd: 108 pM
  koff: 0.000951 s⁻¹
  kon: 8.82e+06 M⁻¹ s⁻¹

B6: NVS4 heavy chain variant D55Q (Fab, V domains shown)
VH: B1 VH with N31D, D55Q
VL: B1 VL
notes: CDR variant of NVS4
  Kd: 82.3 pM
  koff: 0.000541 s⁻¹
  kon: 6.57e+06 M⁻¹ s⁻¹

B7: NVS4 heavy chain variant D55Q + D56N (Fab, V domains shown)
VH: B1 VH with N31D, D55Q, D56N
VL: B1 VL
notes: CDR variant of NVS4
  Kd: 90.9 pM
  koff: 0.000656 s⁻¹
  kon: 7.22e+06 M⁻¹ s⁻¹

B8: NVS4 heavy chain variant D56N (Fab, V domains shown)
VH: B1 VH with N31D, D56N
VL: B1 VL
notes: CDR variant of NVS4
  Kd: 7.65 pM
  koff: 4.84e-05 s⁻¹
  kon: 6.33e+06 M⁻¹ s⁻¹

B9: NVS4 heavy chain variant D57N (Fab, V domains shown)
VH: B1 VH with N31D, D57N
VL: B1 VL
notes: CDR variant of NVS4
  Kd: 132 pM
  koff: 0.0014 s⁻¹
  kon: 1.06e+07 M⁻¹ s⁻¹

B10: NVS4 heavy chain variant D100N (Fab, V domains shown)
VH: B1 VH with N31D, D100N
VL: B1 VL
notes: CDR variant of NVS4
  Kd: 5.49 pM
  koff: 2.57e-05 s⁻¹
  kon: 4.68e+06 M⁻¹ s⁻¹

B11: NVS4 heavy chain variant D100N + H101K (Fab, V domains shown)
VH: B1 VH with N31D, D100N, H101K
VL: B1 VL
notes: CDR variant of NVS4
  Kd: 368 pM
  koff: 0.000363 s⁻¹
  kon: 983000 M⁻¹ s⁻¹

B12: NVS4 heavy chain variant D108N (Fab, V domains shown)
VH: B1 VH with N31D, D108N
VL: B1 VL
notes: CDR variant of NVS4
  Kd: 9.85 pM
  koff: 5.73e-05 s⁻¹
  kon: 5.82e+06 M⁻¹ s⁻¹

B13: NVS4 heavy chain variant D108Q (Fab, V domains shown)
VH: B1 VH with N31D, D108Q
VL: B1 VL
notes: CDR variant of NVS4
  Kd: 6.68 pM
  koff: 4.54e-05 s⁻¹
  kon: 6.8e+06 M⁻¹ s⁻¹

B14: NVS4 heavy chain variant H101K (Fab, V domains shown)
VH: B1 VH with N31D, H101K
VL: B1 VL
notes: CDR variant of NVS4
  Kd: 593 pM
  koff: 0.000773 s⁻¹
  kon: 1.3e+06 M⁻¹ s⁻¹

B15: NVS4 heavy chain variant N102K (Fab, V domains shown)
VH: B1 VH with N31D, N102K
VL: B1 VL
notes: CDR variant of NVS4
  Kd: 16.9 pM
  koff: 4.84e-05 s⁻¹
  kon: 4.77e+06 M⁻¹ s⁻¹

B16: NVS4 heavy chain variant Y34H (Fab, V domains shown)
VH: B1 VH with N31D, Y34H
VL: B1 VL
notes: CDR variant of NVS4
  Kd: 150 pM
  koff: 0.000445 s⁻¹
  kon: 2.97e+06 M⁻¹ s⁻¹

B17: NVS4 heavy chain variant Y59F (Fab, V domains shown)
VH: B1 VH with N31D, Y59F
VL: B1 VL
notes: CDR variant of NVS4
  Kd: 31.1 pM
  koff: 0.000104 s⁻¹
  kon: 3.34e+06 M⁻¹ s⁻¹

B18: NVS4 heavy chain variant Y59H (Fab, V domains shown)
VH: B1 VH with N31D, Y59H
VL: B1 VL
notes: CDR variant of NVS4
  Kd: 56.3 pM
  koff: 0.000119 s⁻¹
  kon: 2.11e+06 M⁻¹ s⁻¹

B19: NVS4 light chain variant H30K (Fab, V domains shown)
VH: B1 VH with N31D
VL: B1 VL with H30K
notes: CDR variant of NVS4
  Kd: 35.5 pM
  koff: 0.000149 s⁻¹
  kon: 4.22e+06 M⁻¹ s⁻¹

B20: NVS4 light chain variant I28K (Fab, V domains shown)
VH: B1 VH with N31D
VL: B1 VL with I28K
notes: CDR variant of NVS4
  Kd: 5.34 pM
  koff: 3e-05 s⁻¹
  kon: 5.62e+06 M⁻¹ s⁻¹

B21: NVS4 light chain variant S95K (Fab, V domains shown)
VH: B1 VH with N31D
VL: B1 VL with S95K
notes: CDR variant of NVS4
  Kd: 81.9 pM
  koff: 0.000482 s⁻¹
  kon: 5.88e+06 M⁻¹ s⁻¹

B22: NVS4 light chain variant T53K (Fab, V domains shown)
VH: B1 VH with N31D
VL: B1 VL with T53K
notes: CDR variant of NVS4
  Kd: 2.82 pM
  koff: 1.3e-05 s⁻¹
  kon: 4.6e+06 M⁻¹ s⁻¹

B23: NVS4 light chain variant T96R (Fab, V domains shown)
VH: B1 VH with N31D
VL: B1 VL with T96R
notes: CDR variant of NVS4
  Kd: 2.44 pM
  koff: 1.37e-05 s⁻¹
  kon: 5.6e+06 M⁻¹ s⁻¹

B24: NVS4 light chain variant Y92F (Fab, V domains shown)
VH: B1 VH with N31D
VL: B1 VL with Y92F
notes: CDR variant of NVS4
  Kd: 41.5 pM
  koff: 7.84e-05 s⁻¹
  kon: 1.89e+06 M⁻¹ s⁻¹

B25: HC1.1T (Fab, V domains shown)
VH: B1 VH with N31S, D55Q, D56N, D57N, D108N
VL: B1 VL
notes: Tagged heavy chain CDR variant HC1.1 with NVS4 light chain
  Kd: 77.9 pM
  koff: 0.00854 s⁻¹
  kon: 1.1e+08 M⁻¹ s⁻¹

B26: HC1.2T (Fab, V domains shown)
VH: B1 VH with N31S, D55Q, D56N, D57N
VL: B1 VL
notes: Tagged heavy chain CDR variant HC1.2 with NVS4 light chain
  Kd: 41.4 pM
  koff: 0.00456 s⁻¹
  kon: 1.1e+08 M⁻¹ s⁻¹

B27: HC1T (Fab, V domains shown)
VH: B1 VH with N31S, D55Q, D56N, D57N, D100S, D108N
VL: B1 VL
notes: Tagged heavy chain CDR variant HC1 with NVS4 light chain
  Kd: 88.3 pM
  koff: 0.00852 s⁻¹
  kon: 9.65e+07 M⁻¹ s⁻¹

B28: HC2T (Fab, V domains shown)
VH: B1 VH with D55Q, D56N, D100N
VL: B1 VL
notes: Tagged heavy chain CDR variant HC2 with NVS4 light chain
  Kd: 11.1 pM
  koff: 0.000862 s⁻¹
  kon: 7.8e+07 M⁻¹ s⁻¹

B29: HC3T (Fab, V domains shown)
VH: B1 VH with D55Q, D56N, D57N, D100N
VL: B1 VL
notes: Tagged heavy chain CDR variant HC3 with NVS4 light chain
  Kd: 80 pM
  koff: 0.00898 s⁻¹
  kon: 1.12e+08 M⁻¹ s⁻¹

B30: HC4T (Fab, V domains shown)
VH: B1 VH with D55Q, D56N, D100N, D108N
VL: B1 VL
notes: Tagged heavy chain CDR variant HC4 with NVS4 light chain
  Kd: 9.93 pM
  koff: 0.000912 s⁻¹
  kon: 9.18e+07 M⁻¹ s⁻¹

B31: HC6T (Fab, V domains shown)
VH: B1 VH with D55Q, D56N, D57Q, D100N, D108N
VL: B1 VL
notes: Tagged heavy chain CDR variant HC6 with NVS4 light chain
  Kd: 49.9 pM
  koff: 0.00624 s⁻¹
  kon: 1.25e+08 M⁻¹ s⁻¹

B32: HC7T (Fab, V domains shown)
VH: B1 VH with N31K, D53K, D55K, D57K, Y60K
VL: B1 VL
notes: Tagged heavy chain CDR variant HC7 with NVS4 light chain
  Kd: 554 pM
  koff: 0.186 s⁻¹
  kon: 3.37e+08 M⁻¹ s⁻¹

B33: HC8T (Fab, V domains shown)
VH: B1 VH with N31K, D53K, D56K, D57K, Y59K
VL: B1 VL
notes: Tagged heavy chain CDR variant HC8 with NVS4 light chain
  Kd: 948 pM
  koff: 0.0026 s⁻¹
  kon: 2.74e+06 M⁻¹ s⁻¹

B34: LC1T (Fab, V domains shown)
VH: B1 VH with N31D
VL: B1 VL with E27Q, L50Q, S56K
notes: Light chain CDR variant LC1 of NVS4 with tagged NVS4 heavy chain
  Kd: 1.23 pM
  koff: 7.3e-05 s⁻¹
  kon: 5.95e+07 M⁻¹ s⁻¹

B35: LC2T (Fab, V domains shown)
VH: B1 VH with N31D
VL: B1 VL with E27Q, I28K, L50Q, T53K, S56K
notes: Light chain CDR variant LC2 with tagged NVS4 heavy chain
  Kd: 1.33 pM
  koff: 0.000109 s⁻¹
  kon: 8.18e+07 M⁻¹ s⁻¹

B36: LC3T (Fab, V domains shown)
VH: B1 VH with N31D
VL: B1 VL with E27Q, I28K, L50Q, T53K, S56K, T96R
notes: Light chain CDR variant LC3 with tagged NVS4 heavy chain
  Kd: 1.2 pM
  koff: 0.00016 s⁻¹
  kon: 1.34e+08 M⁻¹ s⁻¹

B37: LC4T (Fab, V domains shown)
VH: B1 VH with N31D
VL: B1 VL with E27Q, I28K, L50Q, S56K
notes: Light chain CDR variant LC4 with tagged NVS4 heavy chain
  Kd: 1.49 pM
  koff: 0.000135 s⁻¹
  kon: 9.1e+07 M⁻¹ s⁻¹

B38: LC5T (Fab, V domains shown)
VH: B1 VH with N31D
VL: B1 VL with E27Q, H30K, L50Q, S56K
notes: Light chain CDR variant LC5 with tagged NVS4 heavy chain
  Kd: 4.35 pM
  koff: 0.000588 s⁻¹
  kon: 1.35e+08 M⁻¹ s⁻¹
